Laboratory results from patent US20170072062A1 (published 2017).
Ends that are not written are not given here. * marks the point of attachment. Methacryloyl = C=C(C)C(=O)*

T1: TRAP deposited by previous osteoclast activity on human cortical bone wafers (human, UniProt P13686 22-325, limits assumed)
T1 construct: The target is TRAP on a bone surface, not purified protein; The species follows from the human donor bone; also called bone resorption pits
T1 sequence (looked up): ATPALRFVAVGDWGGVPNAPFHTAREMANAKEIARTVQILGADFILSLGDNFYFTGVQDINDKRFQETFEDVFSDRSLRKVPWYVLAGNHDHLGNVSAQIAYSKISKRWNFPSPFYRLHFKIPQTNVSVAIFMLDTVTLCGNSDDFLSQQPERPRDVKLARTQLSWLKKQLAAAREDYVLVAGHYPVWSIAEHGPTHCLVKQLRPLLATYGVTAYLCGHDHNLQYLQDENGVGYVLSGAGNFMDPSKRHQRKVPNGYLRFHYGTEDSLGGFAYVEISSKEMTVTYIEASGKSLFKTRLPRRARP


What was measured:
[1] = biological target: type V tartrate-resistant acid phosphatase (TRAP) protein, immobilised on CM5 sensor chip; assay: SPR, TRAP on CM5 chip, initial rate analysis of sensorgrams
[2] = biological target: type V tartrate-resistant acid phosphatase (TRAP) protein, immobilised on CM5 sensor chip; assay: SPR, TRAP on CM5 chip, binding curve fit (n = 2, Ave. ± StDev)
[3] = biological target: type V tartrate-resistant acid phosphatase (TRAP) protein, immobilised on CM5 sensor chip; assay: SPR, TRAP on CM5 chip; lower end of a range told of the peptide-functionalized polymers
[4] = biological target: type V tartrate-resistant acid phosphatase (TRAP) protein, immobilised on CM5 sensor chip; assay: SPR, TRAP on CM5 chip; upper end of a range told of the peptide-functionalized polymers
[5] = biological target: T1, TRAP deposited by previous osteoclast …; assay: confocal imaging of fluorescent peptide on human cortical bone wafers decorated with TRAP
Protocol: Equal concentrations of fluorescently labeled TBP and SCP are prepared in 1× phosphate-buffered saline (PBS). Bone wafers are cut from cortical bone obtained from the femur of a human donor cadaver and incubated in peptide solutions overnight, washed twice with 1×PBS, and then visualized via confocal imaging. Stacked sections are compressed into 2D images to allow for qualitative analysis as in FIG. 3A through FIG. 3D.

[6] = biological target: type V tartrate-resistant acid phosphatase (TRAP) protein, immobilised on CM5 sensor chip; assay: SPR, TRAP on CM5 chip, binding curve fit
[7] = biological target: type V tartrate-resistant acid phosphatase (TRAP) protein, immobilised on CM5 sensor chip; assay: SPR, TRAP on CM5 chip, steady-state response vs concentration fit

Binder | Kd [1] | Kd [2] | other results
Methacryloyl-TPLSYLKGLVTVG (not fully specified; also: RAFT copolymer with PEG methyl ether methacrylate, about 11 peptides per chain) [5% TBP-functionalized PEG polymer, M:CTA:I 600:1:0.1, Mn 98.2 kDa (Table 4)] | 140 µM | – | –
Methacryloyl-TPLSYLKGLVTVG (not fully specified; also: RAFT copolymer with PEG methyl ether methacrylate, about 9 peptides per chain) [10% TBP-functionalized polymer (pTBP), M:CTA:I 300:1:0.1, Mn 40.1 kDa (Table 4)] | 60 µM | – | –
Methacryloyl-TPLSYLKGLVTVG (also: RAFT copolymer with PEG monomethyl ether methacrylate, multivalent) [10% peptide monomer TBP-functionalized PEG polymer (Table 1, Mn 69000 Da)] | – | 12.7 µM | –
Methacryloyl-TPLSYLKGLVTVG (also: RAFT copolymer with PEG monomethyl ether methacrylate, multivalent) [20% peptide monomer TBP-functionalized PEG polymer (Table 1, Mn 26700 Da)] | – | 7.5 µM | Kd [3]: 7.1 to 21 µM
Methacryloyl-TPLSYLKGLVTVG (not fully specified; also: RAFT copolymer with PEG methyl ether methacrylate, about 5 peptides per chain) [5% TBP-functionalized PEG polymer, M:CTA:I 250:1:0.1, Mn 42.3 kDa (Table 4)] | 80 µM | – | –
Methacryloyl-TPLSYLKGLVTVG (not fully specified; also: RAFT copolymer with PEG methyl ether methacrylate, about 12 peptides per chain) [20% TBP-functionalized PEG polymer, M:CTA:I 500:1:0.1, Mn 32.7 kDa (Table 4)] | 70 µM | – | –
Methacryloyl-TPLSYLKGLVTVG (also: RAFT copolymer with PEG monomethyl ether methacrylate, multivalent) [5% peptide monomer TBP-functionalized PEG polymer (Table 1, Mn 103900 Da)] | – | 21.7 µM | Kd [4]: 7.1 to 21 µM
VPVGTLSYLKLTG (also: fluorescent cadaverine coupled, site not given here, also called fluorescently labeled SCP; Control (SCP)) [fluorescently labeled scrambled control peptide (SCP)] | – | – | binding result [5]: no binding
TPLSYLKGLVTVG [TRAP-binding peptide (TBP)] | – | 795 µM | Kd [6]: 700 µM; Kd [7]: 200 µM
Methacryloyl-TPLSYLKGLVTVG (not fully specified; also: RAFT copolymer with PEG methyl ether methacrylate, about 3 peptides per chain) [5% TBP-functionalized PEG polymer, M:CTA:I 125:1:0.1, Mn 17.1 kDa (Table 4)] | 70 µM | – | –
